# Target: the molecule itself
# Assay: […]; 20 mM sodium phosphate pH 7, 100 mM NaCl, 2 mM TCEP
protein,measurement,value
"human tripartite motif-containing protein 25 (TRIM25), residues 183-380 (domain or fragment, UniProt Q14258 183-380, looked up, not shown: His6, N-terminal, cleaved; SUMO, N-terminal, cleaved) HKTCSPASLSQASADLEATLRHKLTVMYSQINGASRALDDVRNRQQDVRMTANRKVEQLQQEYTEMKALLDASETTSTRKIKEEEKRVNSKFDTIYQILLKKKSEIQTLKEEIEQSLTKRDEFEFLEKASKLRGISTKPVYIPEVELNHKLIKGIHQSTIDLKNELKQCIGRLQEPTPSSGDPGEHDPASTHKSTRPV",stoichiometry N,2

# From publication PMC12242641 (ACS Omega, 2025)
